Data published in the Immune Epitope Database (IEDB).

Columns and labels:
HLA-C*04:01 = assay: IEDB peptide-MHC binding, purified MHC/direct/fluorescence; filed as Kd, often an IC50 or EC50 that approximates it; ≥ and ≤ were set here for values at or beyond the usual limits of such assays
HLA-A*80:01 = assay: as above
HLA-A*01:01 [1] = assay: IEDB peptide-MHC binding, purified MHC/competitive/fluorescence; filed as Kd, often an IC50 or EC50 that approximates it; ≥ and ≤ were set here for values at or beyond the usual limits of such assays; settings: source organism: Homo sapiens
HLA-B*44:02 = assay: IEDB peptide-MHC binding, purified MHC/direct/fluorescence; filed as Kd, often an IC50 or EC50 that approximates it; ≥ and ≤ were set here for values at or beyond the usual limits of such assays
HLA-B*27:05 = assay: as above
HLA-B*58:01 = assay: as above
HLA-B*15:01 [2] = assay: as above
HLA-A*01:01 [3] = assay: as above
HLA-A*03:01 = assay: as above
HLA-A*24:02 = assay: as above
HLA-B*07:02 = assay: as above
HLA-A*02:01 [4] = assay: as above
HLA-B*08:01 = assay: as above
HLA-B*40:01 [5] = assay: as above
HLA-A*69:01 = assay: as above
HLA-B*39:01 = assay: as above; settings: source organism: Camelpox virus M-96
HLA-B*15:17 = assay: as above
HLA-B*18:01 [6] = assay: as above; settings: source organism: Camelpox virus M-96
HLA-B*57:01 [7] = assay: as above
HLA-A*68:02 = assay: as above
HLA-B*48:01 = assay: IEDB peptide-MHC binding, purified MHC/competitive/fluorescence; filed as Kd, often an IC50 or EC50 that approximates it; ≥ and ≤ were set here for values at or beyond the usual limits of such assays; settings: source organism: Vaccinia virus L-IPV
HLA-B*35:01 = assay: as above
HLA-B*40:01 [8] = assay: as above; settings: source organism: Vaccinia virus L-IPV
HLA-B*46:01 = assay: IEDB peptide-MHC binding, purified MHC/direct/fluorescence; filed as Kd, often an IC50 or EC50 that approximates it; ≥ and ≤ were set here for values at or beyond the usual limits of such assays; settings: source organism: Influenza A virus (A/Viet Nam/HN/2004(H5N1))
HLA-A*11:01 = assay: as above
HLA-A*31:01 = assay: as above
HLA-A*32:01 = assay: IEDB peptide-MHC binding, purified MHC/competitive/radioactivity; filed as Kd, often an IC50 or EC50 that approximates it; ≥ and ≤ were set here for values at or beyond the usual limits of such assays; settings: source organism: Dengue virus 2 Jamaica/1409/1983
HLA-B*15:01 [9] = assay: as above; settings: source organism: Dengue virus 2 Jamaica/1409/1983
HLA-A*30:02 = assay: as above; settings: source organism: Dengue virus 2 Jamaica/1409/1983
HLA-B*57:01 [10] = assay: as above; settings: source organism: Dengue virus 2 Jamaica/1409/1983
HLA-C*05:01 = assay: IEDB peptide-MHC binding, purified MHC/direct/fluorescence; filed as Kd, often an IC50 or EC50 that approximates it; ≥ and ≤ were set here for values at or beyond the usual limits of such assays; settings: source organism: Escherichia coli B171
HLA-A*02:01 [11] = assay: IEDB peptide-MHC binding, purified MHC/competitive/fluorescence; filed as Kd, often an IC50 or EC50 that approximates it; ≥ and ≤ were set here for values at or beyond the usual limits of such assays
HLA-C*12:03 = assay: IEDB peptide-MHC binding, purified MHC/direct/fluorescence; filed as Kd, often an IC50 or EC50 that approximates it; ≥ and ≤ were set here for values at or beyond the usual limits of such assays; settings: source organism: Vaccinia virus WR
HLA-C*08:02 = assay: as above; settings: source organism: Vaccinia virus WR
HLA-C*15:02 = assay: as above; settings: source organism: Vaccinia virus WR
HLA-C*06:02 = assay: as above; settings: source organism: Vaccinia virus WR
HLA-A*26:03 = assay: as above; settings: source organism: Ravn virus - Ravn, Kenya, 1987
HLA-A*23:01 = assay: as above; settings: source organism: Marburg virus - Musoke, Kenya, 1980
HLA-A*24:03 = assay: as above
HLA-B*08:03 = assay: as above; settings: source organism: Ravn virus - Ravn, Kenya, 1987
HLA-A*26:02 = assay: IEDB peptide-MHC binding, purified MHC/competitive/fluorescence; filed as Kd, often an IC50 or EC50 that approximates it; ≥ and ≤ were set here for values at or beyond the usual limits of such assays; settings: source organism: Orthomarburgvirus marburgense
HLA-A*02:06 = assay: as above; settings: source organism: Orthomarburgvirus marburgense
HLA-B*15:01 [12] = assay: as above; settings: source organism: Orthomarburgvirus marburgense
HLA-B*18:01 [13] = assay: as above; settings: source organism: Orthomarburgvirus marburgense
[14] = source organism: Giardia lamblia ATCC 50803
[15] = source organism: Camelpox virus M-96
[16] = source organism: Influenza A virus (A/Viet Nam/HN/2004(H5N1))
[17] = source organism: Mycobacterium tuberculosis
[18] = source organism: Vaccinia virus WR
[19] = source organism: Marburg virus - Musoke, Kenya, 1980

Which Kd (HLA-C*04:01; source organism: Yellow fever virus) does the source give for MYMALIAAF here?
The Kd was at least 20 µM.

For WVDSTPPPG, which Kd (HLA-A*80:01; source organism: Homo sapiens) is on record?
Its Kd is at least 20 µM.

And the Kd (HLA-A*01:01 [1])?
The Kd was 11.6 µM.

For ETKKRMDYF, which Kd (HLA-B*44:02; [14]) is on record?
Its Kd is at least 20 µM.

And the Kd (HLA-B*27:05; [14])?
The Kd was at least 20 µM.

And the Kd (HLA-B*58:01; [14])?
The Kd was at least 20 µM.

And the Kd (HLA-B*15:01 [2]; [14])?
Its Kd is at least 20 µM.

What about the Kd (HLA-A*01:01 [3]; [14]) of the same sequence?
Its Kd is at least 20 µM.

What about the Kd (HLA-A*03:01; [14]) of the same sequence?
Its Kd is at least 20 µM.

What about the Kd (HLA-A*24:02; [14]) of the same sequence?
The Kd was at least 20 µM.

And the Kd (HLA-B*07:02; [14])?
Its Kd is at least 20 µM.

And the Kd (HLA-A*02:01 [4]; [14])?
The Kd was at least 20 µM.

What about the Kd (HLA-B*08:01; [14]) of the same sequence?
Its Kd is 1.56 µM.

What about the Kd (HLA-B*40:01 [5]; [14]) of the same sequence?
Its Kd is at least 20 µM.

What does the source list for SHEQGDIAL?
Kd (HLA-A*69:01; [15]): ≥ 20 µM; Kd (HLA-B*39:01): 0.0925 µM; Kd (HLA-B*27:05; [15]): ≥ 20 µM; Kd (HLA-B*58:01; [15]): ≥ 20 µM; Kd (HLA-B*15:01 [2]; [15]): ≥ 20 µM; Kd (HLA-A*01:01 [3]; [15]): ≥ 20 µM; Kd (HLA-B*07:02; [15]): ≥ 20 µM; Kd (HLA-A*02:01 [4]; [15]): ≥ 20 µM; Kd (HLA-B*15:17; [15]): ≥ 20 µM; Kd (HLA-B*18:01 [6]): ≥ 20 µM; Kd (HLA-B*57:01 [7]; [15]): ≥ 20 µM; Kd (HLA-A*68:02; [15]): ≥ 20 µM; Kd (HLA-B*48:01): ≥ 20 µM; Kd (HLA-B*35:01; source organism: Vaccinia virus L-IPV): 2.3 µM; Kd (HLA-B*40:01 [8]): ≥ 20 µM

Which results are given for RNEQGQTLW?
Kd (HLA-B*44:02; [16]): ≥ 20 µM; Kd (HLA-B*46:01): ≥ 20 µM; Kd (HLA-B*27:05; [16]): ≥ 20 µM; Kd (HLA-A*11:01; [16]): ≥ 20 µM; Kd (HLA-B*58:01; [16]): 0.0718 µM; Kd (HLA-B*15:01 [2]; [16]): ≥ 20 µM; Kd (HLA-A*01:01 [3]; [16]): ≥ 20 µM; Kd (HLA-A*03:01; [16]): ≥ 20 µM; Kd (HLA-A*24:02; [16]): ≥ 20 µM; Kd (HLA-B*07:02; [16]): ≥ 20 µM; Kd (HLA-A*02:01 [4]; [16]): ≥ 20 µM; Kd (HLA-A*31:01; [16]): ≥ 20 µM; Kd (HLA-B*08:01; [16]): ≥ 20 µM; Kd (HLA-B*40:01 [5]; [16]): ≥ 20 µM

KTWAYHGSY was tested. Which Kd (HLA-A*32:01) did it give?
The Kd was 0.00506 µM.

What about the Kd (HLA-B*15:01 [9]) of the same sequence?
Its Kd is 0.00288 µM.

What about the Kd (HLA-A*30:02) of the same sequence?
Its Kd is 4.05 µM.

What about the Kd (HLA-B*57:01 [10]) of the same sequence?
Its Kd is 0.00457 µM.

And the Kd (HLA-A*80:01; source organism: dengue virus type 3)?
Its Kd is 3 µM.

Which results are given for KTVCVQATK?
Kd (HLA-A*01:01 [3]; [17]): ≥ 20 µM; Kd (HLA-A*80:01; [17]): ≥ 20 µM

What does the source list for HADDIPVPV?
Kd (HLA-C*05:01): 0.004 µM; Kd (HLA-C*04:01; source organism: Escherichia coli B171): ≥ 20 µM; Kd (HLA-A*02:01 [11]; source organism: Escherichia coli): 0.0649 µM

IFPSMYFLM was tested. Which Kd (HLA-A*24:02; source organism: Entamoeba histolytica HM-1:IMSS) did it give?
The Kd was 0.002 µM.

Which Kd (HLA-C*12:03) does the source give for FTSSFYNYV here?
The Kd was at most 0.001 µM.

What about the Kd (HLA-C*08:02) of the same sequence?
The Kd was 0.818 µM.

What about the Kd (HLA-C*15:02) of the same sequence?
The Kd was 0.019 µM.

And the Kd (HLA-C*04:01; [18])?
The Kd was at least 20 µM.

And the Kd (HLA-C*06:02)?
Its Kd is 0.089 µM.

What about the Kd (HLA-A*02:01 [11]; [18]) of the same sequence?
Its Kd is 0.0046 µM.

What does the source list for GFPSLESSF?
Kd (HLA-A*69:01; [19]): ≥ 20 µM; Kd (HLA-A*11:01; [19]): ≥ 20 µM; Kd (HLA-B*58:01; [19]): ≥ 20 µM; Kd (HLA-A*01:01 [3]; [19]): ≥ 20 µM; Kd (HLA-A*24:02; [19]): 0.26 µM; Kd (HLA-B*07:02; [19]): ≥ 20 µM; Kd (HLA-A*02:01 [4]; [19]): ≥ 20 µM; Kd (HLA-A*26:03): ≥ 20 µM; Kd (HLA-A*31:01; [19]): ≥ 20 µM; Kd (HLA-B*08:01; source organism: Ravn virus - Ravn, Kenya, 1987): ≥ 20 µM; Kd (HLA-A*23:01): 0.0555 µM; Kd (HLA-B*15:17; [19]): ≥ 20 µM; Kd (HLA-A*24:03; [19]): 0.0395 µM; Kd (HLA-B*08:03): ≥ 20 µM; Kd (HLA-B*57:01 [7]; [19]): ≥ 20 µM; Kd (HLA-A*68:02; [19]): ≥ 20 µM; Kd (HLA-A*26:02): ≥ 20 µM; Kd (HLA-A*02:06): 2.92 µM; Kd (HLA-B*15:01 [12]): ≥ 20 µM; Kd (HLA-B*18:01 [13]): 0.263 µM; Kd (HLA-B*35:01; source organism: Orthomarburgvirus marburgense): 0.877 µM

Which Kd (HLA-A*24:03; source organism: Orthohantavirus dobravaense) does the source give for LFPELDCFF here?
Its Kd is 0.011 µM.

And the Kd (HLA-C*04:01; source organism: Kurkino virus)?
The Kd was at least 20 µM.
